No end group written: not given here.
B1: peptide of SEQ ID NO 16 (408-423) (peptide)
peptide: LVRYTKKVPQVSTPTL
notes: Chemically synthesized fragment of human serum albumin (HSA)

Target: T1, CXC chemokine receptor 4 (CXCR4) (human, UniProt P61073 1-352)
Assay: cell-based or functional assay

T1 sequence (P61073 whole entry): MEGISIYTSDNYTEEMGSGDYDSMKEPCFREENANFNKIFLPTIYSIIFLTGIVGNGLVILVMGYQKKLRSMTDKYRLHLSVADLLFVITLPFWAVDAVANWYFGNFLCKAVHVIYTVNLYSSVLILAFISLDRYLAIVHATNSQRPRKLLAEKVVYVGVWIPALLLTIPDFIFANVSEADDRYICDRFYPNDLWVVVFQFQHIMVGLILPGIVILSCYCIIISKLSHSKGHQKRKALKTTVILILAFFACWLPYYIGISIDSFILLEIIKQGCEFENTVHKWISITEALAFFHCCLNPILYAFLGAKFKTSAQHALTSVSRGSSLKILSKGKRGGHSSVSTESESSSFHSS

With B1 the “mean 50% inhibitory concentration (IC50) of infection by X4 HIV-1 strains” value was 15.8 µg/mL.

Target: T1, CXC chemokine receptor 4 (CXCR4)
Assay: cell-based or functional assay
Remark: another data set of the same source

Going from IVRSTKKVPQVS [408I-419 Y411S] to LVRYTKKVPQ [408-417], the “IC50 (µM), blocking of X4 tropic HIV-1 NL4-3 infection” value (from here on “IC50 (µM), blocking”) falls from over 100 µM to 19.8 µM.

Going from IVRWSKKVCQVS [408I-419 WSC03] to IVHYTKKVPQVS [408I-419 R410H], the “IC50 (µM), blocking” value rises from 1.51 µM to over 100 µM.

First: IVRYSKKVPQC [408I-418 SC]
Second: IVRWSKKVPQCS (also: homodimer, disulfide between Cys of the two monomers) [408I-419 WSC01 x2]
The “IC50 (µM), blocking” value of the first is 16-fold higher: 2.94 µM for the first, 0.18 µM for the second.

First: LLVRYTKKVPQVS [407-419]
Second: IVRWSKKVPCVS [408I-419 WSC02]
The “IC50 (µM), blocking” value of the first is 36-fold higher: 11.1 µM for the first, 0.31 µM for the second.

Going from IVRWSKKVPCVS (also: homodimer, disulfide between Cys10 of two monomers) [408I-419 WSC02 x2] to LARYTKKV [408-415-V409A], the “IC50 (µM), blocking” value rises from 0.12 µM to 32.9 µM (270-fold).

First: IVRWCKKVPQVS [408I-419 WC03]
Second: B1
The “IC50 (µM), blocking” value of the first is 4.7-fold lower: 1.82 µM for the first, 8.63 µM for the second.

Going from IVRYTKCVPQVS [408I-419 K414C] to IVRWCKKVPQVS (also: homodimer, disulfide between Cys of the two monomers) [408I-419 WC03 x2], the “IC50 (µM), blocking” value falls from 5.87 µM to 0.6 µM (9.8-fold).

Going from LVRYTKKV [408-415] to IVRWTCKVPQVS (also: homodimer, disulfide between Cys of the two monomers) [408I-419 WC02 x2], the “IC50 (µM), blocking” value falls from 25.7 µM to 0.32 µM (80-fold).

Compared with IVKYTKKVPQVS [408I-419 R410K], LVRYTKKVPQVSTP [408-421] is lower in “IC50 (µM), blocking” value: over 100 µM for the first, 14 µM for the second.

Going from LVRYTKKVPQVS [408-419] to IVRWSKKVPQCS [408I-419 WSC01], the “IC50 (µM), blocking” value falls from 5.49 µM to 0.87 µM (6.3-fold).

Compared with IVRYTKKVPQVS [408I-419], LVRYAKKV [408-415-T412A] is 4.5-fold higher in “IC50 (µM), blocking” value: 2.48 µM for the first, 11.2 µM for the second.

First: IVRYSKKVPQVS [408I-419 T412S]
Second: IVRYTKKVPQCS (also: homodimer, disulfide between Cys of the two monomers) [408I-419 V418C x2]
The “IC50 (µM), blocking” value of the first is 4.5-fold higher: 2.09 µM for the first, 0.46 µM for the second.

First: IVRYTKCVPQVS (also: homodimer, disulfide between Cys of the two monomers) [408I-419 K414C x2]
Second: LVRYTKKVPQVST [408-420]
The “IC50 (µM), blocking” value of the first is 15-fold lower: 1.05 µM for the first, 15.3 µM for the second.

Compared with IVRYTKKVPQCS [408I-419 V418C], IVRYSKKVPQC (also: homodimer, disulfide between Cys of the two monomers) [408I-418 SC x2] is 9.5-fold lower in “IC50 (µM), blocking” value: 3.69 µM for the first, 0.39 µM for the second.

First: IVRWTKKVPQVS [408I-419 Y411W]
Second: IVRWTKKVPQVC (also: homodimer, disulfide between Cys of the two monomers) [408I-419 WC01_x2]
The “IC50 (µM), blocking” value of the first is 3.9-fold higher: 1.54 µM for the first, 0.4 µM for the second.

Compared with IVRWTKKVPQVC [408I-419 WC01], IVRFTKKVPQVS [408I-419 Y411F] is 2.4-fold higher in “IC50 (µM), blocking” value: 1.65 µM for the first, 3.89 µM for the second.

First: IVRWTCKVPQVS [408I-419 WC02]
Second: LVRYTKKVPQVSTPT [408-422]
The “IC50 (µM), blocking” value of the first is 6.4-fold lower: 2.1 µM for the first, 13.4 µM for the second.

For LVRYTKKVPQV [408-418], the “IC50 (µM), blocking” value was 26.8 µM.

Target: T2, eGFP-CXCR4 (UniProt P61073 1-352)
T2 construct: whole, on cells; not shown: EGFP part of the fusion
T2 sequence (P61073 whole entry, the tested form may be a part): as the sequence (P61073 whole entry) above
Assay: competition with 100 nM CXCL12-TexasRed on cells expressing eGFP-CXCR4, real-time fluorescence
Protocol: Experiments were performed using cells stably expressing eGFP-CXCR4, suspended in HEPES-bovine serum albumin buffer (10 mM HEPES, 137.5 mM NaCl, 1.25 mM MgCl₂, 1.25 mM CaCl₂, 6 mM KCl, 10 mM glucose, 0.4 mM NaH₂PO₄, 0.1% bovine serum albumin (w/v), pH 7.4) (typically at 10⁶ cells/mL). Time-based recordings of the fluorescence emitted at 510 nm (excitation at 470 nm) were performed at 21° C. using a spectrofluorimeter and sampled every 0.3 s. Fluorescence binding measurements were initiated by adding at 30 s 100 nM of CXCL12-TR to the 1 mL cell suspension. For competition experiments, EGFP-CXCR4 expressing cells were preincubated for 10 min in the absence or presence of various concentrations of unlabelled drugs. Then, CXCL12-TR (100 nM) was added and fluorescence was recorded until equilibrium was reached (300 s). Data were analyzed using Kaleidagraph 3.08 software (Synergy Software, Reading, Pa., USA).

Binder B1 has a Ki of 3000 nM.

From US20160122389A1 (PHARIS BIOTEC, published 2016)
